Test [1] concerns the target extracellular domain of human interferon-γ receptor 1 (IFN-γ-Rx), wild type (human) (UniProt P15260). The test is described as follows: SPR; His-tagged receptor immobilised on Ni2+-activated HTG chip (ProteOn XPR36); IFN-γ-SC as analyte, 1.2 to 99 nM; PBST (PBS pH 7.4, 0.005% Tween20); 25 °C; 1:1 Langmuir with drift; averages over four different batches of IFN-γ-SC. For orientation: SPR reads the build-up and loss of mass on a sensor chip optically.

For test [2], the target named is extracellular domain of human interferon-γ receptor 1 (IFN-γ-Rx), mutant N96W (human) (UniProt P15260). The description is as above.
Test [3] addresses extracellular domain of human interferon-γ receptor 1 (IFN-γ-Rx), mutant N70G (human) (UniProt P15260). The description is as above.
Test [4] has as its target extracellular domain of human interferon-γ receptor 1 (IFN-γ-Rx), mutant S95R (human) (UniProt P15260). The test is described as follows: SPR; His-tagged receptor immobilised on Ni2+-coated HTG chip; IFN-γ-SC as analyte; PBST; 20 °C; preliminary data of temperature dependency.
The target of test [5] is extracellular domain of human interferon-γ receptor 1 (IFN-γ-Rx), wild type (human) (UniProt P15260). The test is described as above.
The target of test [6] is extracellular domain of human interferon-γ receptor 1 (IFN-γ-Rx), mutant N96W (human) (UniProt P15260). The test is described as above.
The target in test [7] is extracellular domain of human interferon-γ receptor 1 (IFN-γ-Rx), mutant H222R (human) (UniProt P15260). The description is as above.
Test [8] concerns the target extracellular domain of human interferon-γ receptor 1 (IFN-γ-Rx), mutant N70G (human) (UniProt P15260). The description is as above.

Kd data for one substance are collected here from publication PMC3807708.

A word on the Kd: it is a measure of binding affinity in units of concentration. Regarding “single-chain form of human interferon-γ (IFN-γ-SC) (ligand)”, the dissociation constant Kd came out at 21 nM in test [1]; 5.3 nM in test [2]; 19 nM in test [3]; 44.4 nM in test [4]; 21.7 nM in test [5]; 5.28 nM in test [6]. For the same substance, the Kd is 19.4 nM in test [7] and 17.3 nM in test [8].
